Data taken from paper PMC12062102, “Dual Targeting of Neuropilin-1 and Glucose Transporter for Efficient Fluorescence Imaging of Cancer” (Molecular Imaging and Biology, 2025).

Columns and labels:
[1] = Photostability of NGF under laser irradiation; type: physicochemical; conditions: 3 μM in methanol, laser irradiation 30 min, UV-vis absorbance A/A0
[2] = Protocol: Probe NGF (10 μM) was added to a mixture of H2O (0.5 mL) and n-octanol (0.5 mL), shaken thoroughly, and centrifuged for 3 min. The absorbance (A) of NGF in both H2O and n-octanol was measured using a UV-vis absorption spectrometer.
[3] = In vivo IVIS fluorescence imaging, signal clearance and persistence in tumor-bearing mice; design: species or system Balb/c nude mice; conditions: 25 μM NGF, 200 μL i.v.
Protocol: (§1) The SPF female Balb/c nude mice (4–5 weeks old) were obtained from Changzhou Cavens Laboratory Animal Co., LTD (Changzhou, China). Tumor models were created by subcutaneously injecting 0.5 ~ 1 × 10^7 MDA-MB-231, HCT116 or NCI-H1299 cells in 100 μL PBS into the right forelimb of the nude mice. Imaging studies were conducted once the tumor volume reached approximately 100 mm^3. All animal experiments requiring the use of mice were approved by the animal care committee of Shanghai University (ECSHU 2024–004).
(§2) Animal fluorescence imaging was conducted using an IVIS Imaging spectroscopy system (PerkinElmer Inc., USA). MDA-MB-231, HCT116, and NCI-H1299 tumor-bearing mice (n = 3–5) were intravenously injected with 25 μM NGF (200 μL) via the tail vein. Following injection, mice were anesthetized with a 2% v/v isoflurane/oxygen mixture at a flow rate of […] to maintain stable physiological conditions during imaging. Subsequently, long-term optical imaging observations of tumor-bearing mice were performed using the IVIS Spectrum imaging system (PerkinElmer, USA). Imaging scans were conducted at various time points (1, 2, 4, 6, 8, 12, 24, 36, 48, 60, and 72 h) after NGF administration. The excitation wavelength (λex) was set to 745 nm and the emission wavelength (λem) was set to 840 nm for optimal fluorescence signal acquisition.

MDA-MB-231 tumor = assay: In vivo IVIS fluorescence imaging, MDA-MB-231 tumor-bearing mice; design: species or system Balb/c nude mice; conditions: 25 μM NGF, 200 μL i.v., imaging up to 72 h
Protocol: as §1, §2

NCI-H1299 tumor = assay: In vivo IVIS fluorescence imaging, NCI-H1299 tumor-bearing mice; design: species or system Balb/c nude mice; conditions: 25 μM NGF, 200 μL i.v., n = 3–5
Protocol: as §1, §2

[4] = Aqueous stability of NGF in PBS; type: physicochemical; conditions: 3 μM in PBS, 37°C, 48 h incubation, UV-vis absorbance A/A0
HCT116 cells = assay: Flow cytometry / confocal imaging and blocking study in HCT116 cells; type: cell-based, human
Protocol: (§3) MDA-MB-231, HCT116, and NCI-H1299 cells in logarithmic growth phase were seeded in 6-well plate and incubated at 37 ℃ in a 5% CO2 humidified incubator for 12 h, then the cells were fixed with 4% paraformaldehyde containing 1% TritonX-100 overnight at 4 ℃. Next, cells were treated with NGF (2 μM) for 1 h, stained with DAPI for 5 min, and finally the fluorescent images were captured using laser scanning fluorescence confocal microscopy (Olympus IX51). Images were captured using a U-LH100 HG mercury lamp with a WIY (Cy5 channel) filter and a 200 ms exposure time. A 10 × eyepiece and a 20 × objective were used for a total magnification of 200 × . A scale bar of 50 μm was included for reference.
(§4) Cancer cells MDA-MB-231, NCI-H1299 and HCT116 in logarithmic growth phase were harvested and transferred to sterile tubes with DMEM medium at a density of 2 × 10^5 cells per tube. […] Subsequently, the cells were resuspended in 0.5 mL of PBS buffer, and about 2 × 10^4 target cells were extracted for flow cytometry analysis (FACS Verse, BD) with FL4 channel, and the mean fluorescence intensity was quantified using FlowJo software.
(§5) For the blocking study, the cells of HCT116, NCI-H1299, and MDA-MB-231 were pretreated with the D-glucose (50 μM), NRP1 peptide (50 μM), and D-glucose + NRP1 peptide (50 μM) for 30 min. […] Then the fluorescence signals were detected by flow cytometry and microscopy imaging.

MDA-MB-231 cells = assay: Flow cytometry / confocal imaging and blocking study in MDA-MB-231 cells; type: cell-based, human
Protocol: as §3, §4, §5

NCI-H1299 cells = assay: Confocal fluorescence imaging in NCI-H1299 cells; type: cell-based, human; conditions: NCI-H1299 (NRP1- and GLUT1-negative), NGF 2 μM, 1 h
Protocol: as §3
Cancer cells MDA-MB-231, NCI-H1299 and HCT116 in logarithmic growth phase were harvested and transferred to sterile tubes with DMEM medium at a density of 2 × 10^5 cells per tube. Various concentrations of NGF (0.125, 0.25, 0.5, 1, and 2 μM) were added, and the cells were incubated in a humidified incubator with 5% CO2 at 37 ℃ for 1 h. Subsequently, the cells were resuspended in 0.5 mL of PBS buffer, and about 2 × 10^4 target cells were extracted for flow cytometry analysis (FACS Verse, BD) with FL4 channel, and the mean fluorescence intensity was quantified using FlowJo software.

[5] = Photophysical properties (absorption, emission, ε, ΦF); type: physicochemical
Protocol: To investigate the spectral characteristics of probe, NGF (25 μM) was prepared using methanol, and the NGF stock solution was diluted to various concentrations (0.5, 1, 2, 3, and 4 μM) with both methanol or water as solvents. The absorption spectra at various concentrations were recorded using a UV–vis absorption spectrometer. To better understand how the solvent affects the fluorescence properties of NGF, the fluorescence emission spectra of 4 μM NGF were analyzed in both methanol and water. The molar absorption coefficient (ε), fluorescence quantum yield (ΦF), as well as the stability of NGF were investigated, and the details were provided in the Supporting Information.
where, Ix is the measured integrated emission intensity; η is the refractive index of the solvent; A is the absorbance of the solution; the subscript x denotes the probe; st denotes the reference compound.

[6] = 3 μM in 10% (v/v) mouse serum, 37°C, 48 h incubation, UV-vis absorbance A/A0
Protocol: NGF solution (3 μM) was prepared in PBS and 10% (v/v) mouse serum, and the initial absorbance (A0) was measured. Then NGF was incubated with PBS and mouse serum at 37°C, and the absorbance (A) was recorded at 4, 8, 12, 24, and 48 h, respectively. The stability of the probe was evaluated based on the ratio of A/A0. For the photostability, NGF solution (3 μM) was prepared in methanol, and the initial absorbance (A0) was measured. Then NGF was then subjected to laser irradiation, and the absorbance measurements (A) were recorded at 5, 10, 15, 20, and 30 min, respectively. The stability of the probe was evaluated based on the ratio of A/A0.

HCT116 tumor = assay: In vivo IVIS fluorescence imaging, HCT116 tumor-bearing mice; design: species or system Balb/c nude mice; conditions: 25 μM NGF
Protocol: as §1, §2

In the case of CC(C)C[C@H](NC(=O)[C@H](C)NC(=O)CCOCCOCCOCCOCCn1cc(CCC[N+]2=C(C=CC3=C(Cl)C(=CC=C4N(CCCc5cn([C@H]6C(O)O[C@H](CO)[C@@H](O)[C@@H]6O)nn5)c5ccccc5C4(C)C)CCC3)C(C)(C)c3ccccc32)nn1)C(=O)N[C@@H](CCCCN)C(=O)N[C@@H](C)C(=O)N[C@@H](CC(=O)O)C(=O)N[C@@H](CCCCN)C(=O)O (some centres unmarked) [NGF], the “absorbance as % of A0 after laser irradiation” value [1] is reported as 56.7%, the logP [2] is reported as -0.95 ± 0.07 and the “time for fluorescent signal to clear from non-target organs” value [3] is reported as no more than 12 h. For the same molecule, the “retention in tumor post-injection” value (MDA-MB-231 tumor) was “at least 72 h”, the tumor fluorescence intensity (NCI-H1299 tumor) was “comparatively weak” and the “absorbance as % of initial absorbance (A0) in PBS” value [4] was 97.7%. The “uptake relative to mono-receptor block conditions” value (HCT116 cells; HCT116, NGF 2 μM 1 h, pre-treatment 30 min with D-glucose (50 μM) or NRP1 peptide (50 μM), flow cytometry mean fluorescence intensity) was 1.4–1.5 times, the “cellular internalization (confocal fluorescence)” value (HCT116 cells; HCT116, NGF 2 μM, 1 h) was “substantial internalization” and the “uptake relative to mono-receptor block conditions” value (MDA-MB-231 cells; MDA-MB-231, NGF 2 μM 1 h, pre-treatment 30 min with D-glucose (50 μM) or NRP1 peptide (50 μM), flow cytometry mean fluorescence intensity) was 1.7–2.5 times. The “cellular internalization (confocal fluorescence)” value (MDA-MB-231 cells; MDA-MB-231, NGF 2 μM, 1 h) was “significantly internalized”, the “cellular fluorescence (confocal)” value (NCI-H1299 cells) was “minimal fluorescence” and the “fluorescence intensity in methanol” value ([5]; 4 μM in methanol) was 12365 a.u. The maximum absorbance ([5]; 4 μM in methanol) was 1.06, the “absorption peak (λmax) in MeOH” value ([5]; MeOH) was 783 nm and the “fluorescence emission peak (λem) in MeOH” value ([5]; MeOH, λex = 750 nm) was 807 nm. For the same molecule, the “aggregation in aqueous solution” value ([5]; inferred from lower absorbance and fluorescence in H2O than in MeOH) was “some degree of aggregation”, the “extinction coefficient ε in n-octanol” value ([5]; n-octanol) was 124367 M⁻¹ cm⁻¹ and the “absorbance as % of initial absorbance (A0) in 10% mouse serum” value [6] was 95.2%. For the same molecule, the “time post-injection at which tumor could be clearly identified” value (HCT116 tumor; 200 μL i.v. tail vein, n = 3–5, λex 745 nm / λem 840 nm) was 1 h and the “retention in tumor post-injection” value (HCT116 tumor; 200 μL i.v., imaging up to 72 h) was “at least 72 h”.
